Data published in publication PMC3893231 (mAbs, 2013).

Molecular target: T1, Ang2 (UniProt O15123 19-496)
T1 sequence: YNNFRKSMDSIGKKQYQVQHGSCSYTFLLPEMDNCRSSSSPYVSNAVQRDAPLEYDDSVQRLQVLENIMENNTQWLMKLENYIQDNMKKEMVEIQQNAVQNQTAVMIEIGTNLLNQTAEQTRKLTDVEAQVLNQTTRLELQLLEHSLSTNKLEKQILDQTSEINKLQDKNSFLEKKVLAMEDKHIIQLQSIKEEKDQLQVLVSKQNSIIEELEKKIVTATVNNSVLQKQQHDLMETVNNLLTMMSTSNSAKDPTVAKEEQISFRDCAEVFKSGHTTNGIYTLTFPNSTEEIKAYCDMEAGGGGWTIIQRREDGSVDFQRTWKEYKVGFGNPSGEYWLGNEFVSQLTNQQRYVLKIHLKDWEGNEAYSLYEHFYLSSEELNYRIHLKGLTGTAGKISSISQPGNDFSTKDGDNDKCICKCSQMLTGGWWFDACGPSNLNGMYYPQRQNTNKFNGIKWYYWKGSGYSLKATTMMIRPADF
Experiment: SPR

LWDDCYFFPNPPHCYNSP (designed binder) [MBP-a1]
Kd: 22.2 ± 0.08 nM
